Test results from patent publication US8597660B2, “Therapeutic approach to neurodegenerative disorders using a TFP5-peptide” (The United States of America, as represented by the …, priority 2010, dated 2013).

Target: Cdk5/P25 (Homo sapiens, UniProt Q00535)
Assay: Kinase assay of Cdk5 immunoprecipitates from cortical neurons infected with Cdk5/P25 with or without P5
Format: cell-based
Parameters: expressed in transfected cells; host or cells: E-18 rat cortical neurons, adenoviral infection (pAdTrack-CMV / AdEasy)
Details: E-18 rat cortical neurons co-infected with P5
Procedure: Primary cultures of rat cortical neurons were prepared from E-18 rat fetuses as described previously (Zheng et al., J Biol Chem 278(26), 24026-24032, 2003). After 7 days, cells were infected independently or co-infected with empty vector (EV), the constructs of P5, P25, P35, wild-type Cdk5 and dominant negative Cdk5 (changing Lys33 to Thr33) using the Adenoviral vector (pAdTrack-CMV) packaging system as described above. […] The cells were fixed for immunocytochemistry analyses (ICC) or lysed with lysis buffer for immunoprecipitation and Western blot analyses. Cortical neuron cultures were prepared and plated on the cover slips as described. Human embryo kidney cells (HEK293) were grown as described previously (Zheng et al., Eur J Biochem 269(18), 4427-4434, 2002). In these studies HEK293 cells on day 1, or neurons on day 5, were transfected with or without Myc-P5-GFP using Lipofectamine 2000 following the manufacturer's instructions.
Kinase assays were performed as previously described (Veeranna, et al., J Neurosci 18(11), 4008-4021, 1998). Briefly, 7 days in culture (7 DIC) primary rat cortical neurons were infected with P25, P35, Cdk5 wild-type, dominant negative-Cdk5 and P5 using the lentiviral gene delivery as described earlier. […]

Chain of Cdk5/P25 (Q00535 whole entry, species assumed): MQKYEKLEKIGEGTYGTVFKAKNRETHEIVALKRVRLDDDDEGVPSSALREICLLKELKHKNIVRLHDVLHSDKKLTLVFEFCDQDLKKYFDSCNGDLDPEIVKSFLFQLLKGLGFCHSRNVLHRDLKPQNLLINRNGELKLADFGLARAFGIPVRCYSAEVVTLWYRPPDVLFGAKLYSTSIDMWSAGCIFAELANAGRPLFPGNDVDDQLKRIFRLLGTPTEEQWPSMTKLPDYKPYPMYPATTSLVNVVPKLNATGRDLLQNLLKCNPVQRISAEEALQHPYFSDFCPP

Decrease of Cdk5 activity in neurons infected with Cdk5/P25: more than 90%
Substance: P5: 24 residue peptide derived from Cdk5 activator P35 (K254-A277 of SEQ ID NO: 16); Cdk5 inhibitory peptide (KEAFWDRCLSVINLMSSKMLQINA; listed as Homo sapiens)
